Legend:
[1] = target: β clamp-Pol IV DNA polymerase interaction (Escherichia coli, UniProt P0A988); settings: Pol IV 1.5 nM; for effect on β-dependent Pol IV activity: peptide 1, 10, 25 μM
Experimental: (§1) FIG. 3A represents the migration pattern of an electrophoresis gel. β free (lanes 1-4 and 9-12) or β loaded (lanes 5-8 and 13-16) labelled primer/template hybrids are incubated with increasing amounts of control peptide (CLIP) (lanes 1-8) or P16 peptide (lanes 9-16). Concentrations of peptides are as follows: 0 μM, lanes 1, 5, 9 and 13; 1 μM, lanes 2, 6, 10 and 14; 10 μM, lanes 3, 7, 11 and 15; 25 μM, lanes 4, 8, 12 and 16. This mixture is then submitted to the enzymatic activity of Pol IV (1.5 nM) in the presence of each four dNTPs for 1 minute at room temperature. Beside the overall increase in DNA synthesis activity, the β-dependent activity of the polymerase is characterised by the apparition of synthesis products longer than 12 nucleotides (β dependent synthesis), β independent synthesis is characterised by products shorter than 12 nucleotides. […] FIG. 3B represents the quantitative analysis of the relative amounts of each β-independent (incorporation of 1 up to 12 nucleotides) and β-dependent (12 and more nucleotides incorporation) activities observed in lanes 5-8 and 13-16. Black and white rectangles represent the ratio of β-dependent to β-independent polymerase activities (vertical axis) in the presence of specified amounts of CLIP and P16 peptides (horizontal axis), respectively. Decrease in this ratio value actually indicates a specific inhibition of the β-dependent polymerase activity.
(§2) Briefly, P16 peptide and a control peptide (CLIP) were diluted in 20 mM NaHCO3 at concentrations of 250, 100 and 10 pmol/μl. 5′ end radiolabelling, purification and annealing of synthetic primers were performed as previously described (Wagner et al., 1999).
All replication experiments (10 μl final volume) were carried out in buffer E (40 mM HEPES pH 7.5, 80 mM potassium glutamate, 160 μg/ml BSA, 16% glycerol, 0.016% NP40, 8 mM DTT). The 30/90 nucleotide hybrid was first incubated with single strand binding proteins (SSB; Sigma; 90 nM final concentration) in the presence of ATP (200 μM) and MgCl2 (7.5 mM) at 37° C. for 10 min. […]

Pol IV DNA polymerase = target: T1, Pol IV DNA polymerase (Escherichia coli, UniProt Q47155); test: intrinsic (β-independent) activity of Pol IV, primer extension on β free primer/template; format: biochemical; settings: peptide 1, 10, 25 μM, Pol IV 1.5 nM
T1 sequence (Q47155 1-351): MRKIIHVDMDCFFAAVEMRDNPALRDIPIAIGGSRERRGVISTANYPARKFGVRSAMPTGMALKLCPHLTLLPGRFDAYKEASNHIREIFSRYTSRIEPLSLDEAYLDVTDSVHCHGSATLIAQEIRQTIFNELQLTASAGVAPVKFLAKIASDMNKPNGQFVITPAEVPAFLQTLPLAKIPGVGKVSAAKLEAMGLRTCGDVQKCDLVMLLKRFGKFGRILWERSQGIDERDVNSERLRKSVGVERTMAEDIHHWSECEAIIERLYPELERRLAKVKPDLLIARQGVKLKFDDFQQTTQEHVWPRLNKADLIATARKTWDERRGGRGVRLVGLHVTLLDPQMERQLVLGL
Experimental: as §1, with “Decrease in this ratio value actually indicates a specific inhibition of the β-dependent polymerase activity.” left out

[2] = target: β clamp-α subunit of DNA Polymerase III interaction (Escherichia coli, UniProt P0A988); settings: peptide 1, 10, 25 μM; α subunit 6 nM
Experimental: as §2
All replication experiments (10 μl final volume) were carried out in buffer E (40 mM HEPES pH 7.5, 80 mM potassium glutamate, 160 μg/ml BSA, 16% glycerol, 0.016% NP40, 8 mM DTT). The 30/90 nucleotide hybrid was first incubated with single strand binding proteins (SSB; Sigma; 90 nM final concentration) in the presence of ATP (200 μM) and MgCl2 (7.5 mM) at 37° C. for 10 min. When specified, the γ complex (1 nM final concentration) (gift from Dr. C. S. McHenry, Denver, USA), and the β clamp (5 nM as dimer final concentration) were added at that stage, and incubation was carried out at 37° C. for 10 min. Then, 7 μl of the mixture was added to 1 μl of either 20 mM NaHCO3 or 1 μl of peptide solution (1, 10 or 25 μM final concentration), incubated 20 min. at room temperature and farther 2 hours at 4° C.

Sequence of β clamp-Pol IV DNA polymerase interaction (P0A988 whole entry): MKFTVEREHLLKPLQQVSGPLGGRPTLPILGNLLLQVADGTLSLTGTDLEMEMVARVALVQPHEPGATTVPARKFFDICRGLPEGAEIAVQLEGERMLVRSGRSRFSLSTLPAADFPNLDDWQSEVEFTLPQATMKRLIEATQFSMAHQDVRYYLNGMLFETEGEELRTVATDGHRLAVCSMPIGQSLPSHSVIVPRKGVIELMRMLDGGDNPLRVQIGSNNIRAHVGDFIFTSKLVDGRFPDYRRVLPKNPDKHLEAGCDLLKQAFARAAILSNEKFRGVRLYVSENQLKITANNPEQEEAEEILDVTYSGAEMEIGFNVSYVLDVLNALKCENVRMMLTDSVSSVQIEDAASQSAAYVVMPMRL
Sequence of β clamp-α subunit of DNA Polymerase III interaction (P0A988 whole entry): as above

## RPVKVTPNGAEDESAEAFPLEF (Control peptide) [CLIP, 22-mer control peptide, reference compound]
[1]
  effect on β-dependent Pol IV activity: no effect
Pol IV DNA polymerase
  effect on intrinsic activity of Pol IV (distributive incorporation of one to up to 12 nucleotides): neither P16 nor CLIP peptides do affect

## VTLLDPQMERQLVLGL (listed as Escherichia coli) [P16, 16-mer peptide representing the 16 last residues of Pol IV DNA polymerase of E. coli]
[2]
  effect on α subunit β-dependent activity: dose dependent inhibition
[1]; highest P16 concentration tested, 25 μM, β clamp 5 nM
  decrease of β-dependent Pol IV activity (factor): around 30
[1]
  effect on β-dependent Pol IV activity: inhibits the β-dependent activity of Pol IV
Pol IV DNA polymerase
  effect on intrinsic activity of Pol IV (distributive incorporation of one to up to 12 nucleotides): neither P16 nor CLIP peptides do affect

— patent publication US7635583B2, “Protein crystal comprising the processivity clamp factor of DNA polymerase and a ligand, and its uses” (Centre National de la Recherche Scientifique, priority 2003, dated 2009)
